Consider 16 sequences from the nanobody polyreactivity screen of Harvey et al. (2022).

The nature of this data set: yeast display, Sf9 membrane polyspecificity reagent, FACS + sequencing; frameworks hold sequencing errors. The method, boiled down: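 Polyreactivity labels are assigned by the sorting gate from which each nanobody was recovered. The gates were low and high (top ~1%), set on anti-HA fluorescence for expression and streptavidin fluorescence for reagent binding. Before sorting, galactose-induced (36–48 hours) yeast display cells were stained for 1 hour at 4 °C with 10% biotinylated, detergent-solubilized Sf9 membrane reagent.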
Regarding “QVQLVESGGGLVQAGGSHRLSCDASGRTFYRNAMGWYRQAPGKERELVAGISSRGGSTYYADSVKGRFTISRDNAKNTVYLQMISLKPEDTAVYYCAATSSPYSIYNSWGQGTQVTVSS”, the “polyreactivity (PSR sort gate)” value is given as “high polyreactivity”. To “QVQLVESGGGLVQAGGSHRLSCSASGITFYYYAMGWYRQAPGKERELVAAISRSGGRTYYADSVKGRFTISRDNAKNTVYLQMNSLKPEDTAVYYCAAVRYQGGDSSIEYDYWGQGTQVTVSW” belongs “high polyreactivity”. The value for “QVQLVESGGGLVQAGGSHRLTCAASGSTFRRYARGWYRQAPGKERELVATISSGRRTNYADSVKGRFTISRDNAKNTVYLQMNSLKPEDTAVYYCAAAYWSSRADTVIKRYYWGQGTQVTVSS” was “high polyreactivity”; that for “QVQLVESGGGLVQAGGSIRISCAASGITFIDYTMGWYRQAPGKERELVAVITKTGYRTYYADSVKGRFTISRDNANNSDYLQMNSLNRSDSAVYYCNALYYIHYYEGYGYWGQGTQVTVSS” was “high polyreactivity”; that for “QVQLVESGGGLVQAGGSIRLRCAASGGIFSVYAMGWYIQAPGKERELVASISLSGGSTSYADSVKGRFTISRDNAKNTVYLQMNSLKPEDTAVYYCNTDFGQAHTLSWYEDMDYWGQGTQVTVSS” was “low polyreactivity”. The value for “QVQLVESGGGLVQAGGSIRLSCAASGFTFDAYAMGWYRQAPGKESELVAAITTSGGNTNYADSVKGRFTISRDNAKNTVYLQMNSLKPEDTAVYYCASDAAVEYGKISYDYWGQGTQVTVSS” was “low polyreactivity”. For “QVQLVESGGGLVQAGGSIRLSCAASGFTFRRNAMGWSRQAPGKERELVAAITSSGASTYYADSVKGRFTISRDNAKNTVYLQMNSLKPEDTAVYYCAARQTYYKYGYWGQGTQVTVSS”, the “polyreactivity (PSR sort gate)” value was “high polyreactivity”. To “QVQLVESGGGLVQAGGSIRLSCAASGIIFYYYAMGWYRQAPGKERELVAGISYSGGSTYADSVKGRFTISRDNAKNTVYLQMNSLKPEDTAVYYCAADYDYGGHWYDYWGQGTQVTVSS” belongs “low polyreactivity”. To “QVQLVESGGGLVQAGGSIRLSCAASGRIFARYAMGWYRQAPGTERELVASITVSGDNTYYADSVKGRFTISRDNAKKTVYLQMNSLKPEDTAVYYCAVRAVVLFGFFEYDYWGQGTQVTVSS” belongs “low polyreactivity”; to “QVQLVESGGGLVQAGGSIRLSCAASGRIFGAYAIGWYRQAPGKERELVADIRTTGSTNYADSVKGRFTISRDNAKNTVYLQMNSLKPEDTAVYYCAARWRSRRFGSGFEYWGQGTQVTVSS”, “high polyreactivity”; to “QVQLVESGGGLVQAGGSIRLSCAASGRTFARNAMGWYRKAPGKERELVAAISSSGGSTYYADSVKGRFTISRDNAKNTVYLQMNSLKPEDTAVYYCARYSSFTYDYWGQGTQVTVSS”, “high polyreactivity”. In the case of “QVQLVESGGGLVQAGGSIRLSCAASGRTFIYNVMGWYRQAPGKERELVAAISSGGNTNYADSVKGRFTISRDNAKNTVYLQMNSLKPEDPAVYYCNARWPLGVSRGGMGYWGQGTQVTVSS”, the “polyreactivity (PSR sort gate)” value was “high polyreactivity”. To “QVQLVESGGGLVQAGGSIRLSCAASGRTFNYYAMGWYRQAPGKERELVAAIDSDGNTYYADSVKGRFTISRDNAKNTVYLQMNSLKPDDTAVYYCAADTHVNPNYDYWGQGTQVTVSS” belongs “low polyreactivity”; to “QVQLVESGGGLVQAGGSIRLSCAASGSIFYHNAMGWYRPAPGKERELVAAITWSGSTTYYADSVKGRFTISRDNGKNTVYLQMNSLKPEDTAVYYCNAGNRHGHYDYWGQGTQVTVSS”, “low polyreactivity”; to “QVQLVESGGGLVQAGGSIRLSCAASGSIYKYNAMGWYRQAPGKERELVAAISSGGSTNYADSVKGRFTISRDNAKNTVYLQMNSLKPEDTAVYYCAKDRRRWYYTRDYWGQGTQVTVSS”, “low polyreactivity”. For the sequence “QVQLVESGGGLVQAGGSIRLSCAASGSIYPFYSMGWYRQATGKEMELVAAISDSGGDTYYADSVKGRFTISRDNAKNTVYLQMNSLKPEDTAVYYCAADWFYNSFNYWGQGTQVTVSS”, the “polyreactivity (PSR sort gate)” value is recorded as “low polyreactivity”.
